Numbering of substitutions follows the chain as printed. Names and notes keep the numbering of the source. One block for each binder: values may come before it.
How the values were obtained:
human FAPa ECD = target: T1, human FAPa ECD (human, UniProt Q12884 26-760); experiment: direct ELISA on coated recombinant ECD (30 ng/well), HRP-conjugated secondary antibody, luminescence
T1 construct: extracellular domain; also called recombinant extracellular domain of FAPα
T1 sequence (looked up): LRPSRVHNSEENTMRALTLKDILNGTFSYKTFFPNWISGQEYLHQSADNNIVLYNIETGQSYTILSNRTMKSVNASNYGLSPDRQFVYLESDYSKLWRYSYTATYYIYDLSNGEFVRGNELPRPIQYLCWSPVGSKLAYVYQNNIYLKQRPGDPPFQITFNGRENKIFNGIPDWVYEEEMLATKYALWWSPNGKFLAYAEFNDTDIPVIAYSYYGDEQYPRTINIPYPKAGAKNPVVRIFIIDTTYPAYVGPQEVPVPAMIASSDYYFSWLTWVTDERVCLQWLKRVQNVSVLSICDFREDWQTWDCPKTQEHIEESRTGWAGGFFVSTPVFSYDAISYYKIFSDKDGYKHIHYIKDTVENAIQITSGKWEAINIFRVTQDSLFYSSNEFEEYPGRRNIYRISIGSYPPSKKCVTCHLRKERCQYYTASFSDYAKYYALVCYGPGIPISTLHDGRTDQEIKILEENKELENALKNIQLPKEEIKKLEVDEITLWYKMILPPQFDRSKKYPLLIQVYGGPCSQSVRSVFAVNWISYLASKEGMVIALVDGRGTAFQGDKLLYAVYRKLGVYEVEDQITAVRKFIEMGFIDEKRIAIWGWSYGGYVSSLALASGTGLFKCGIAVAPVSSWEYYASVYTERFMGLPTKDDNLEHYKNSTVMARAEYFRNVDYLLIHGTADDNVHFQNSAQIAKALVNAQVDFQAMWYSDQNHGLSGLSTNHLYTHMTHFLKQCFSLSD
Experimental: (§1) Briefly, recombinant extracellular domain of PDGFRb, FAPα, ULBP1, uPAR, IGF1R, SIRPA, PD-L1, ANTXR1, CD248, or GPC3 (30 ng/well) was coated on white optiplate™-384 well HB plate. After overnight coating, standard direct ELISA assay was performed. Luminescence signal was detected after using secondary antibody with HRP conjugated. Binding activity of each antibody was determined based on dose dependent binding curve.

human PD-L1 ECD = target: T2, human PD-L1 ECD (human, UniProt Q9NZQ7 19-238); experiment: as above
T2 construct: extracellular domain; also called recombinant extracellular domain of PD-L1
Experimental: as §1

human CD248 ECD = target: T3, human CD248 ECD (human, UniProt Q9HCU0 18-687); experiment: as above
T3 construct: extracellular domain; also called recombinant extracellular domain of CD248
T3 sequence (looked up): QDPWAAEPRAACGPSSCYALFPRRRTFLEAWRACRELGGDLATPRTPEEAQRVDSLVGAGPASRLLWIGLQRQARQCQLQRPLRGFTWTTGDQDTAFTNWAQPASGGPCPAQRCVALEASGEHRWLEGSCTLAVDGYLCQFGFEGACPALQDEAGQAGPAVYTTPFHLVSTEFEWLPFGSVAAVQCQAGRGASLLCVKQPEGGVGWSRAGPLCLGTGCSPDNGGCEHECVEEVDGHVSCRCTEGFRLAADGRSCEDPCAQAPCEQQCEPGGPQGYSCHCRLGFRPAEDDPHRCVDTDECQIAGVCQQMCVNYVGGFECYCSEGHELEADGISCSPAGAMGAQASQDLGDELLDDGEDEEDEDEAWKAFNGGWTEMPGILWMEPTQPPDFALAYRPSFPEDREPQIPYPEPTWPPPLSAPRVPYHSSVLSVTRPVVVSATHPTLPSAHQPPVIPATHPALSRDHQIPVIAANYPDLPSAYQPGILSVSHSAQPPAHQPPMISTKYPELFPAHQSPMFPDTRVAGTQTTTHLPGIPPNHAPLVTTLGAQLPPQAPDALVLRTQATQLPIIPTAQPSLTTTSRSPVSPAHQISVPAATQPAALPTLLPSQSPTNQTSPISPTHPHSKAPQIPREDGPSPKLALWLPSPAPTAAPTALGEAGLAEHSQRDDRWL
Experimental: as §1

human SIRPA ECD = target: T4, human SIRPA ECD (human, UniProt P78324 31-373); experiment: as above
T4 construct: extracellular domain; also called recombinant extracellular domain of SIRPA
Experimental: as §1

[1] = target: T5, IGF-1R on TGFb1-activated primary human HSC cells (human, UniProt P08069 31-1367); experiment: flow cytometry on TGFb1-activated primary human HSC cells, 10 ug/ml antibody, fluorophore-conjugated secondary antibody
T5 construct: whole, on cells
Experimental: Relative expression levels of the antigens on activated HSC were assayed using FACS. Human primary hepatic stellate cells (ScienCell, 5301) were cultured in culture medium (ScienCell, 5300). The cells were activated using 2 ng/ml human TGFb1 (Sinobiological, 10804-HNAC) for 24 hours. These cells were then collected for FACS assay. Briefly, the cells were incubated with 10 μg/ml primary antibody in blocking buffer (10% FBS in PBS) at 4 °C for 1 hour. After two rounds of PBS washes, the cells were stained with secondary antibody conjugated with a fluorophore. The mean fluorescence intensity was measured using FACS. Among the antigens tested, fibroblast activation protein alpha (FAPα) was expressed at relatively high levels, while uPAR, IGF-1R, GPC3, CD248 and NKG2D ligands were expressed at relatively low levels on TGFb1-activated HSC cells.

T4 sequence (P78324 31-373): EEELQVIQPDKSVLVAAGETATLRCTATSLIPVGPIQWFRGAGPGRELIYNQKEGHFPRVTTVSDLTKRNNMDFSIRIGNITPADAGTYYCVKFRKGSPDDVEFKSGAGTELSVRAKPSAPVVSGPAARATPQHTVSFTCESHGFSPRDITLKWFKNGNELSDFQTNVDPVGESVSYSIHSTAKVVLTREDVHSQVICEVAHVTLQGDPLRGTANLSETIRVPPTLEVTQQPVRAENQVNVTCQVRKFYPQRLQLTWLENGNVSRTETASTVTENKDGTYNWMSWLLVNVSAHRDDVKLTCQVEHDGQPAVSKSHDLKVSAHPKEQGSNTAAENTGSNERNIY
T2 sequence (Q9NZQ7 19-238): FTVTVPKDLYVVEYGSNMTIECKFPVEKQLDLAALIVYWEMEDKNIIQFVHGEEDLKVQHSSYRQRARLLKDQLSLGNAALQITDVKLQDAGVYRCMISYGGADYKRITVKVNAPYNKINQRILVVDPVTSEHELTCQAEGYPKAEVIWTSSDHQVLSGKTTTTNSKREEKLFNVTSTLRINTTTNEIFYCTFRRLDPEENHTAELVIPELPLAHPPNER
T5 sequence (P08069 31-1367): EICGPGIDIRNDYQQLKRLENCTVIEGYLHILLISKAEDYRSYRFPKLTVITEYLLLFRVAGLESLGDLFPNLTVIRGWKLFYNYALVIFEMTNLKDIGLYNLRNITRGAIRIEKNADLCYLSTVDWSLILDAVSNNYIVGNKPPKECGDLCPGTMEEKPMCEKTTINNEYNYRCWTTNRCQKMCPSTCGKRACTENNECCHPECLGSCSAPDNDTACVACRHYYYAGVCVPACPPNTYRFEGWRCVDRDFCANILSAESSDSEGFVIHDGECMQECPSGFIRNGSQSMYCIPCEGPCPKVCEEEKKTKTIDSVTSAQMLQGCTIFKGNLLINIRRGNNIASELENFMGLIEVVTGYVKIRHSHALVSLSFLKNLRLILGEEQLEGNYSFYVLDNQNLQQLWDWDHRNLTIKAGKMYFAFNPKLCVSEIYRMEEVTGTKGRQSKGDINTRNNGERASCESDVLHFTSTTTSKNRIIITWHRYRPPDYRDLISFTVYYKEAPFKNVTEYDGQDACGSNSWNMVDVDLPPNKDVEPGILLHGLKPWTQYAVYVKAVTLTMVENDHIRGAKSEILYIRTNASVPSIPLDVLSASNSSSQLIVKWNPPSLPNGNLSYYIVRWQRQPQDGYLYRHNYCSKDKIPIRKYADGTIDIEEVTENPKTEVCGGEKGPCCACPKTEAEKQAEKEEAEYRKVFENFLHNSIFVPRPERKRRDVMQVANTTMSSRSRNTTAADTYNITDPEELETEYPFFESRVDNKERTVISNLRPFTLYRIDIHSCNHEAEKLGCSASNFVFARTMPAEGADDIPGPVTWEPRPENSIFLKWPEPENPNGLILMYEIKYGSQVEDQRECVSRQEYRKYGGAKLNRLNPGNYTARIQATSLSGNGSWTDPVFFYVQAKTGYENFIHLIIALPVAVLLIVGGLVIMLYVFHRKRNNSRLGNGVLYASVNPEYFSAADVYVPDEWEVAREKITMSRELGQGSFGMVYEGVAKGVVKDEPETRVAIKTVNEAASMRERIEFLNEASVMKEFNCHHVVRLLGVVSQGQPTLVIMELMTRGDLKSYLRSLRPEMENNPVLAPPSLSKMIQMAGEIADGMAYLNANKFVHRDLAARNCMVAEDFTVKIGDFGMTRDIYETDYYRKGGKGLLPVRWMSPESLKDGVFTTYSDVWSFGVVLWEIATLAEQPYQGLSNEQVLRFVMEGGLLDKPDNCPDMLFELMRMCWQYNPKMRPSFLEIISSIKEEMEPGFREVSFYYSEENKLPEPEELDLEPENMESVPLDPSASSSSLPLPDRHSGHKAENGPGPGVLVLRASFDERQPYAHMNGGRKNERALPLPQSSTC

binding result (human FAPa ECD): binds
B1: α-FAPa 1 S239D/1332E (antibody, mouse IgG2a, kappa, V domains shown)
VH: QVQLVQSGAEVKKPGASVKVSCKTSRYTFTEYTIHWVRQAPGQRLEWIGGINPNNGIPNYNQKFKGRVTITVDTSASTAYMELSSLRSEDTAVYYCARRRIAYGYDEGHAMDYWGQGTLVTVSS
VL: DIVMTQSPDSLAVSLGERATINCKSSQSLLYSRNQKNYLAWYQQKPGQPPKLLIFWASTRESGVPDRFSGSGFGTDFTLTISSLQAEDVAVYYCQQYFSYPLTFGQGTKVEIKR
notes: also called α-FAPα 1 S239D/I332E

EC50 (read off the curve) (human PD-L1 ECD): ~0.02 µg/mL
B2: α-PDL1 1 S239D/1332E (antibody, human IgG1, kappa, V domains shown)
VH: EVQLVQSGAEVKKPGATVKISCKVSGYTFTSYWMYWVRQARGQRLEWIGRIDPNSGSTKYNEKFKNRFTISRDNSKNTLYLQMNSLRAEDTAVYYCARDYRKGLYAMDYWGQGTTVTVSS
VL: AIQLTQSPSSLSASVGDRVTITCKASQDVGTAVAWYLQKPGQSPQLLIYWASTRHTGVPSRFSGSGSGTDFTFTISSLEAEDAATYYCQQYNSYPLTFGQGTKVEIKR
notes: Humanized, hIgG1 isotype, with S239D/I332E; also called α-PDL1 1 S239D/I332E; exemplary anti-PDL1 antibody (α-PDL1 1)

EC50 (read off the curve) (human CD248 ECD): ~0.04 µg/mL
B3: α-CD248 1 mIgG2a S239D/1332E (antibody, V domains shown)
VH: QVQLQESGPGLVAPSQSLSITCTVSGFSLTGYGVNWVRQPPEKGLEWLGMIWVDGSTDYNSALKSRLNISKDKSKSQVFLKMNSLQTDDTARYYCARGGYGAMDYWGQGTSVTVSS
VL: DIQMNQSPSSLSASLGDTITITCHASQNINVWLTWYQQKPGNIPKLLIYKASNLHTGVPSRFSGSGSGTGFTLTISSLQPEDIATYYCQQGQSYPWTFGGGTKLEIKR
notes: mIgG2a with S239D/I332E; also called α-CD248 1 mIgG2a S239D/I332E; exemplary anti-CD248 antibody (α-CD248 1)

EC50 (read off the curve) (human SIRPA ECD): ~0.3 nM
B4: α-SIRPA 1 S239D/1332E (antibody, human IgG1, kappa, V domains shown)
VH: EVQLQQSGAELVKPGASVKLSCTTSGFNFKDMYIHWVKQRPQQGLEWIGRIDPENDDTKYDPKFQDKATITADTSSNTAYLQLSNLPSEDTAVYYCARGNYVHWGQGTLVTVSA
VL: DIVLTQSPASLAVSLGQRATISCRASESVQYYGTSLMQWYQQKPGQPPKLLIYAASNVESGVPARFSGSGSGTDFSLNIYPVEEDDIAMYFCQQSRRVWTFGGGTKLEIKR
notes: Chimeric: murine variable regions, hIgG1 constant region with S239D/I332E; also called α-SIRPA 1 S239D/I332E; exemplary anti-SIRPA antibody (α-SIRPA 1)

EC50 (read off the curve) (human SIRPA ECD): ~0.3 nM
B5: α-SIRPA 2 S239D/1332E (antibody, human IgG1, kappa, V domains shown)
VH: B4 VH with L20V, T24G, I34L, Q42E, D57S, I70L, S75A, L83I, N85S, P87T
VL: B4 VL with E59G, Y80H, S95T
notes: Chimeric: murine variable regions, hIgG1 constant region with S239D/I332E; also called α-SIRPA 2 S239D/I332E; exemplary anti-SIRPA antibody (α-SIRPA 2)

binding result [1]: binds
B6: α-IGF1R 2 S239D/1332E (antibody, human IgG1, kappa, V domains shown)
VH: EVQLLESGGGLVQPGGSLRLSCAASGFTFSNYPMYWVRQAPGKGLEWVSRISSSGGRTVYADSVKGRFTISRDNSKNTLYLQMNSLRAEDTAVYYCARDRWSRSAAEYGLGGYWGQGTLVTVSS
VL: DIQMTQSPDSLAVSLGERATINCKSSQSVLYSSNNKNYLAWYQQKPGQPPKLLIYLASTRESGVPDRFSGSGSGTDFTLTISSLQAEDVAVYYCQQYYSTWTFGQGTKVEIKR
notes: hIgG1 with S239D/I332E; also called α-IGF1R 2 S239D/I332E; exemplary anti-IGF1R antibody (α-IGF1R 2)
